Experimental data taken from the supplement of paper PMC7877785.
± gives the uncertainty stated by the source.

Test: self-splicing fitness, log relative to wild type (ln ratio); higher = more splicing; Tetrahymena group I intron in knt gene, E. coli kanamycin selection, DiMSum; sequences stand for … in CUCUCU…GGAGGGAAAAGUUAUCAGGCAUGCACCUGGUAGCUAGUCUUUAAACCAAUAGAUUGCAUCGGUUUAAAAGGCAAGACCGUCAAAUUGCGGGAAAGGGGUCAACAGCCGUUCAGUACCAAGUCUCAGGGGAAACUUUGAGAUGGCCUUGCAAAGGGUAUGGUAAUAAGCUGACGGACAUGGUCCUAACCACGCAGCCAAGUCCUAAGUCAACAGAUCUUCUGUUGAUAUGGAUGCAGUUCACAGACUAAAUGUCGGUCGGGGAAGAUGUAUUCUUCUCAUAAGAUAUAGUCGGACCUCUCCUUAAUGGGAGCUAGCGGAUGAAGUGAUGCAACACUGGAGCCGCUGGGAACUAAUUUGUAUGCGAAAGUAUAUUGAUUAGUUUUGGAGUACUCGUGGUCG
Outline: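 DiMSum derived fitness as the error-weighted combination of fold changes across replicates, kanamycin versus no kanamycin, normalised to wild type. E. coli BL21(DE3) held the library, which randomised all eight P1ex-region intron nucleotides within the knt kanamycin-resistance gene on pET-22b(+). Six replicate transformations grew overnight at 37°C or 30°C on LB agar with or without 25 μg/mL kanamycin, also containing 100 μg/mL carbenicillin, 50 μM IPTG and 0.2% rhamnose, and pooled colonies were amplicon-sequenced on an Illumina HiSeq 2500.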

Q: With CCGAAGCAAUAUUACGUGUU as the sequence, how does the “self-splicing fitness (ln)” value (30 °C) read?
A: -3.93 ± 0.16

Q: What about the “self-splicing fitness (ln)” value (37 °C) of the same sequence?
A: -2.89 ± 0.15

Q: What does the source list for UUGCAGCAAUAUUACGGAUC?
A: self-splicing fitness (ln) (30 °C): -3.22 ± 0.27; self-splicing fitness (ln) (37 °C): -2.93 ± 0.37

Q: Which results are given for UGAUAGCAAUAUUACGUUUU?
A: self-splicing fitness (ln) (30 °C): -3.75 ± 0.16; self-splicing fitness (ln) (37 °C): -1.85 ± 0.14

Q: What does the source list for GAGCAGCAAUAUUACGACUG?
A: self-splicing fitness (ln) (30 °C): -1.75 ± 0.11; self-splicing fitness (ln) (37 °C): -2.01 ± 0.18

Q: For GGGAAGCAAUAUUACGACAU, which “self-splicing fitness (ln)” value (30 °C) is on record?
A: -0.662 ± 0.015

Q: What about the “self-splicing fitness (ln)” value (37 °C) of the same sequence?
A: -0.341 ± 0.034

Q: For AUGGAGCAAUAUUACGUCUU, which “self-splicing fitness (ln)” value (30 °C) is on record?
A: -2.52 ± 0.16

Q: And the “self-splicing fitness (ln)” value (37 °C)?
A: -1.81 ± 0.21

Q: With CAGAAGCAAUAUUACGAAAA as the sequence, how does the “self-splicing fitness (ln)” value (30 °C) read?
A: -4.31 ± 0.46

Q: And the “self-splicing fitness (ln)” value (37 °C)?
A: -2.65 ± 0.21

Q: Which “self-splicing fitness (ln)” value (30 °C) does the source give for GGUUAGCAAUAUUACGGUAU here?
A: -1.55 ± 0.11

Q: And the “self-splicing fitness (ln)” value (37 °C)?
A: -0.531 ± 0.11

Q: With AUAUAGCAAUAUUACGGCUA as the sequence, how does the “self-splicing fitness (ln)” value (30 °C) read?
A: -0.422 ± 0.1

Q: And the “self-splicing fitness (ln)” value (37 °C)?
A: -0.506 ± 0.12

Q: For AUGUAGCAAUAUUACGUCCC, which “self-splicing fitness (ln)” value (30 °C) is on record?
A: -1.73 ± 0.17

Q: And the “self-splicing fitness (ln)” value (37 °C)?
A: -1.02 ± 0.27

Q: With UCUCAGCAAUAUUACGUCUC as the sequence, how does the “self-splicing fitness (ln)” value (30 °C) read?
A: -4.6 ± 0.31

Q: And the “self-splicing fitness (ln)” value (37 °C)?
A: -3 ± 0.23

Q: Which results are given for GUUCAGCAAUAUUACGAAUA?
A: self-splicing fitness (ln) (30 °C): -1.01 ± 0.12; self-splicing fitness (ln) (37 °C): -0.181 ± 0.1

Q: With CGUUAGCAAUAUUACGGAUG as the sequence, how does the “self-splicing fitness (ln)” value (30 °C) read?
A: -1.85 ± 0.11

Q: And the “self-splicing fitness (ln)” value (37 °C)?
A: -1.37 ± 0.14

Q: With ACAUAGCAAUAUUACGACUA as the sequence, how does the “self-splicing fitness (ln)” value (30 °C) read?
A: -0.666 ± 0.11

Q: What about the “self-splicing fitness (ln)” value (37 °C) of the same sequence?
A: -0.473 ± 0.1

Q: With ACUGAGCAAUAUUACGUUUU as the sequence, how does the “self-splicing fitness (ln)” value (30 °C) read?
A: -4.25 ± 0.26

Q: What about the “self-splicing fitness (ln)” value (37 °C) of the same sequence?
A: -2.07 ± 0.18

Q: With AGGAAGCAAUAUUACGGAGC as the sequence, how does the “self-splicing fitness (ln)” value (30 °C) read?
A: -2.78 ± 0.21

Q: What about the “self-splicing fitness (ln)” value (37 °C) of the same sequence?
A: -1.61 ± 0.3

Q: With UUGCAGCAAUAUUACGCACU as the sequence, how does the “self-splicing fitness (ln)” value (30 °C) read?
A: -1.6 ± 0.13

Q: And the “self-splicing fitness (ln)” value (37 °C)?
A: -1.15 ± 0.13

Q: Which “self-splicing fitness (ln)” value (30 °C) does the source give for AGUAAGCAAUAUUACGACAG here?
A: -2.95 ± 0.2

Q: What about the “self-splicing fitness (ln)” value (37 °C) of the same sequence?
A: -1.94 ± 0.22

Q: Which “self-splicing fitness (ln)” value (30 °C) does the source give for ACCAAGCAAUAUUACGGUUG here?
A: -3.21 ± 0.11

Q: And the “self-splicing fitness (ln)” value (37 °C)?
A: -3.88 ± 0.23

Q: Which “self-splicing fitness (ln)” value (30 °C) does the source give for GAUGAGCAAUAUUACGACUC here?
A: -1.68 ± 0.14

Q: And the “self-splicing fitness (ln)” value (37 °C)?
A: -0.273 ± 0.24

Q: What does the source list for GCGCAGCAAUAUUACGAUCU?
A: self-splicing fitness (ln) (30 °C): -0.609 ± 0.055; self-splicing fitness (ln) (37 °C): -0.141 ± 0.067

Q: With CUCUAGCAAUAUUACGCUGG as the sequence, how does the “self-splicing fitness (ln)” value (30 °C) read?
A: -3.13 ± 0.23

Q: And the “self-splicing fitness (ln)” value (37 °C)?
A: -1.51 ± 0.32

Q: Which “self-splicing fitness (ln)” value (37 °C) does the source give for UAGAAGCAAUAUUACGGUGC here?
A: -1.46 ± 0.48

Q: With AGCAAGCAAUAUUACGGAUU as the sequence, how does the “self-splicing fitness (ln)” value (30 °C) read?
A: -1.94 ± 0.07

Q: What about the “self-splicing fitness (ln)” value (37 °C) of the same sequence?
A: -0.407 ± 0.084

Q: Which “self-splicing fitness (ln)” value (30 °C) does the source give for GUCGAGCAAUAUUACGACAA here?
A: -1.97 ± 0.24

Q: And the “self-splicing fitness (ln)” value (37 °C)?
A: -2.85 ± 0.4

Q: Which “self-splicing fitness (ln)” value (30 °C) does the source give for UAGCAGCAAUAUUACGGAAG here?
A: -3.04 ± 0.16

Q: What about the “self-splicing fitness (ln)” value (37 °C) of the same sequence?
A: -1.14 ± 0.15

Q: With CAUCAGCAAUAUUACGCCCC as the sequence, how does the “self-splicing fitness (ln)” value (30 °C) read?
A: -1.56 ± 0.21

Q: Which results are given for AGGCAGCAAUAUUACGGAUC?
A: self-splicing fitness (ln) (30 °C): -2.19 ± 0.1; self-splicing fitness (ln) (37 °C): -0.495 ± 0.099

Q: With UAAUAGCAAUAUUACGUUCC as the sequence, how does the “self-splicing fitness (ln)” value (37 °C) read?
A: -1.52 ± 0.48

Q: What does the source list for GUCAAGCAAUAUUACGCUGG?
A: self-splicing fitness (ln) (30 °C): -4.08 ± 0.28; self-splicing fitness (ln) (37 °C): -3.72 ± 0.29

Q: With AAGAAGCAAUAUUACGAGUC as the sequence, how does the “self-splicing fitness (ln)” value (30 °C) read?
A: -2.53 ± 0.23

Q: And the “self-splicing fitness (ln)” value (37 °C)?
A: -1.51 ± 0.25

Q: With GACCAGCAAUAUUACGAUGA as the sequence, how does the “self-splicing fitness (ln)” value (30 °C) read?
A: -0.717 ± 0.071

Q: And the “self-splicing fitness (ln)” value (37 °C)?
A: -0.509 ± 0.085

Q: With GAAAAGCAAUAUUACGGAAA as the sequence, how does the “self-splicing fitness (ln)” value (30 °C) read?
A: -2.88 ± 0.27

Q: What about the “self-splicing fitness (ln)” value (37 °C) of the same sequence?
A: -1.55 ± 0.16

Q: With AGAGAGCAAUAUUACGCCUA as the sequence, how does the “self-splicing fitness (ln)” value (30 °C) read?
A: -2.6 ± 0.48

Q: And the “self-splicing fitness (ln)” value (37 °C)?
A: -1.08 ± 0.33

Q: Which “self-splicing fitness (ln)” value (30 °C) does the source give for CCCCAGCAAUAUUACGUCAA here?
A: -3.29 ± 0.12

Q: And the “self-splicing fitness (ln)” value (37 °C)?
A: -3 ± 0.16

Q: For CACAAGCAAUAUUACGCGAU, which “self-splicing fitness (ln)” value (30 °C) is on record?
A: -3.57 ± 0.15

Q: What about the “self-splicing fitness (ln)” value (37 °C) of the same sequence?
A: -3.18 ± 0.19

Q: What does the source list for GCGUAGCAAUAUUACGCUAA?
A: self-splicing fitness (ln) (30 °C): -3.9 ± 0.27; self-splicing fitness (ln) (37 °C): -2.25 ± 0.21

Q: Which results are given for GGAUAGCAAUAUUACGAUGU?
A: self-splicing fitness (ln) (30 °C): -0.882 ± 0.084; self-splicing fitness (ln) (37 °C): -0.0369 ± 0.11

Q: With ACAGAGCAAUAUUACGGCUU as the sequence, how does the “self-splicing fitness (ln)” value (30 °C) read?
A: -3.27 ± 0.23

Q: What about the “self-splicing fitness (ln)” value (37 °C) of the same sequence?
A: -1.99 ± 0.18

Q: With CGGUAGCAAUAUUACGCUUC as the sequence, how does the “self-splicing fitness (ln)” value (37 °C) read?
A: -0.894 ± 0.24

Q: For GGCAAGCAAUAUUACGUAUU, which “self-splicing fitness (ln)” value (30 °C) is on record?
A: -0.415 ± 0.06

Q: What about the “self-splicing fitness (ln)” value (37 °C) of the same sequence?
A: -0.183 ± 0.074

Q: With GUGAAGCAAUAUUACGUGGC as the sequence, how does the “self-splicing fitness (ln)” value (30 °C) read?
A: -2.6 ± 0.14

Q: What about the “self-splicing fitness (ln)” value (37 °C) of the same sequence?
A: -2.41 ± 0.23

Q: For CAGAAGCAAUAUUACGAUCC, which “self-splicing fitness (ln)” value (30 °C) is on record?
A: -2.81 ± 0.16

Q: What about the “self-splicing fitness (ln)” value (37 °C) of the same sequence?
A: -1.93 ± 0.32

Q: Which “self-splicing fitness (ln)” value (30 °C) does the source give for GGUAAGCAAUAUUACGAUCG here?
A: -0.894 ± 0.1

Q: What about the “self-splicing fitness (ln)” value (37 °C) of the same sequence?
A: 0.451 ± 0.17

Q: Which “self-splicing fitness (ln)” value (30 °C) does the source give for CAAUAGCAAUAUUACGAAUC here?
A: -2.66 ± 0.38

Q: And the “self-splicing fitness (ln)” value (37 °C)?
A: -0.0469 ± 0.27

Q: What does the source list for ACCUAGCAAUAUUACGGUAC?
A: self-splicing fitness (ln) (30 °C): -3.75 ± 0.37; self-splicing fitness (ln) (37 °C): -2.76 ± 0.26

Q: Which “self-splicing fitness (ln)” value (30 °C) does the source give for ACUAAGCAAUAUUACGUGGA here?
A: -2.99 ± 0.14

Q: And the “self-splicing fitness (ln)” value (37 °C)?
A: -1.49 ± 0.11

Q: With CCUCAGCAAUAUUACGCUUU as the sequence, how does the “self-splicing fitness (ln)” value (30 °C) read?
A: -3.07 ± 0.14

Q: And the “self-splicing fitness (ln)” value (37 °C)?
A: -2.79 ± 0.21

Q: Which results are given for UAGUAGCAAUAUUACGGGAG?
A: self-splicing fitness (ln) (30 °C): -3.69 ± 0.4; self-splicing fitness (ln) (37 °C): -2.3 ± 0.45
